Assays:
[1] = molecular target: T1, IL-2 receptor βγ complex (IL-2Rβ and IL-2Rγ subunits) (Homo sapiens, UniProt P14784+P31785); assay: PathHunter IL-2 Cytokine Receptor assay, agonist mode, βγ cell line; format: cell-based; conditions: for EC50: IL2Rα-negative U2OS cell line, 10 kD PEGylated conjugates, * = 30 kD; for βγ/αβγ ratio: ratio of the EC50 values
T1 construct: host or cells: recombinant human U2OS cell line (PathHunter)
T1 sequence (P14784 27-551): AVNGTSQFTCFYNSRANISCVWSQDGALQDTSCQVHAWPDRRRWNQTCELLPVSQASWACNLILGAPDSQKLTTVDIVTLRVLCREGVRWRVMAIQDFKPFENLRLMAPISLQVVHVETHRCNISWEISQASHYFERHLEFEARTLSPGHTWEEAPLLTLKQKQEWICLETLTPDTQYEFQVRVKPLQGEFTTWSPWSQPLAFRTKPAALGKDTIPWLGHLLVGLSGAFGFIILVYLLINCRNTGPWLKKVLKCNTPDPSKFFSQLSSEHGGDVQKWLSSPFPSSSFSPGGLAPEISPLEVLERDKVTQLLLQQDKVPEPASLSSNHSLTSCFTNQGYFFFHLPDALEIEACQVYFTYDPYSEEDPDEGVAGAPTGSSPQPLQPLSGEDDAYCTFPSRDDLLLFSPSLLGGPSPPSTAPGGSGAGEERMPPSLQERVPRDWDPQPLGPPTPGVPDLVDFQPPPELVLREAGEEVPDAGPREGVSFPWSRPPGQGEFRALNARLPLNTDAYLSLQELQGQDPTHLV
T1 sequence (P31785 23-369): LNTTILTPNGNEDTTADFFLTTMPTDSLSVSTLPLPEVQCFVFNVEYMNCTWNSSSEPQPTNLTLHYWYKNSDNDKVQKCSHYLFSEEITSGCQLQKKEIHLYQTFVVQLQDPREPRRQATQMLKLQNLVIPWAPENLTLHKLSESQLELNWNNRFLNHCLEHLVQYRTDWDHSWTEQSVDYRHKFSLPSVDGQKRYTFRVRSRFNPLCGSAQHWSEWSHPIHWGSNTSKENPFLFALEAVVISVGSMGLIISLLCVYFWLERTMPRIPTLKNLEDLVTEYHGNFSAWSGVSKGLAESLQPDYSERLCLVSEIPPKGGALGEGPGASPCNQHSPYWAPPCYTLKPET
Experimental: (§1) PathHunter cell lines were expanded from freezer stocks according to standard procedures. Cells were seeded in a total volume of 20 μL into white walled, 384-well microplates and incubated for the appropriate time prior to testing.
(§2) For agonist determination, cells were incubated with sample to induce response. Intermediate dilution of sample stocks was performed to generate 5× sample in assay buffer. About 5 μL of 5× sample was added to cells and incubated at 37° C. for 6 to 16 hours depending on the assay. Vehicle concentration was 1%.
(§3) Assay signal was generated through a single addition of 12.5 or 15 μL (50% v/v) of PathHunter Detection reagent cocktail for agonist and antagonist assays respectively, followed by a one hour incubation at room temperature. For some assays, activity was detected using a high sensitivity detection reagent (PathHunter Flash Kit) to improve assay performance. In these assays, an equal volume of detection reagent (25 or 30 μL) was added to the wells, followed by a one hour incubation at room temperature. Microplates were read following signal generation with a PerkinElmer Envision™ instrument for chemiluminescent signal detection.
(§4) Compound activity was analyzed using CBIS data analysis suite (ChemInnovation, CA). For agonist mode assays, percentage activity was calculated using the following Formula:
(§5) % Activity=100%×(mean RLU of test sample−mean RLU of vehicle control)/(mean MAX RLU control ligand−mean RLU of vehicle control).
(§6) A second cell line has been further engineered to express the IL-2Rα subunit. […] The assay was run in agonist mode to determine the EC50 of each test article, and comparison of dose-response curve profiles between IL2Rα positive and negative cell types allows determination of the contribution of IL2Rα to the observed activity.

[2] = molecular target: T2, IL-2 receptor αβγ complex (Homo sapiens, UniProt P01589+P14784+P31785); assay: PathHunter IL-2 Cytokine Receptor assay, agonist mode, cell line further expressing IL-2Rα; format: cell-based; conditions: IL2Rα-positive U2OS cell line; 10 kD PEGylated conjugates, * = 30 kD
T2 construct: host or cells: recombinant human U2OS cell line (PathHunter), further engineered to express IL-2Rα
T2 sequence (P01589 22-272): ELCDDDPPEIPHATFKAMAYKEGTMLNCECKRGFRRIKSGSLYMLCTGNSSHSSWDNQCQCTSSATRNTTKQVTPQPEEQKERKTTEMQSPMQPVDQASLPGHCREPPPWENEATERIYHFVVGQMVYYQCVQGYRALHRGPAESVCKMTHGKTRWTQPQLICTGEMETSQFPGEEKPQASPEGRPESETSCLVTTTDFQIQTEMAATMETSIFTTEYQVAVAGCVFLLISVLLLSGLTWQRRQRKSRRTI
T2 sequence (P14784 27-551): T1 sequence (P14784 27-551)
T2 sequence (P31785 23-369): T1 sequence (P31785 23-369)
Experimental: as §1, §2, §3, §4, §5, §6

[3] = PK study E3826-U1704 in naïve C57BL/6 mice (human IL-2 ELISA of plasma); format: in vivo; conditions: for t½: 0.3 mg/kg
Experimental: (§7) Terminal blood samples were collected via cardiac puncture at the points indicated. […] Plasma and blood cells (in both studies) and tumors in study E3826-U1803 were collected for PK and PD analyses.
Bioanalysis of plasma samples was performed using a qualified human IL-2 ELISA assay (Abcam, Cambridge, UK). Concentrations of Aldesleukin, E62_30kD and P65_30kD and the internal standard in samples derived from plasma were determined using an ELISA assay. […] The PK data were imported into Phoenix WinNonlin v6.4 (Certara/Pharsight, Princeton, N.J.) for analysis. The group mean plasma concentration versus time data were analyzed with noncompartmental methods using an IV bolus administration model.

[4] = tested on: pSTAT5 and proliferation in CD8+ T, NK and Treg cells; assay: Pharmacodynamics in peripheral blood compartment (pSTAT5, Ki-67, cell counts), Example 5; format: in vivo, C57BL/6 mice; conditions: mice
Excerpt: as §7
STAT5 phosphorylation and induction of cell proliferation (the early molecular marker Ki-67 and cell counts) was used as pharmacodynamics readouts to assess the pharmacological profile of P65_30kD relative to its pharmacokinetics.

[5] = MTD / toxicology study E3826-U1802 in naïve Balb/c mice (hematology, histopathology, organ weight, cytokines); format: in vivo; conditions: Balb/c mice
Experimental: A dose ranging study of P65_30kD was conducted in naïve female Balb/c mice at Crown Biosciences, Inc. (San Diego, Calif.). […] Blood samples were drawn via sub mandibular vein at 8 time points (0.25, 1, 4, 12, 24, 34, 48 & 72 h).
A major of toxicity associated with high-dose aldesleukin is vascular leak syndrome and associated Cytokine Release Syndrome (CRS). […] The analysis performed was hematology, histopathology, organ weight, and cytokine analyses.

[6] = C57BL/6 female mice, single IV bolus 0.3 mg/kg, E62_5 kD from a separate study

Work on “E62: Table 2: 10 kD PEGylated IL-2 conjugate at site E62 [Compound E62]” yielded an EC50 [1] of 3 nM, a βγ/αβγ ratio [1] of 2 and an EC50 [2] of 1.5 nM.

For “E68: Table 2: 10 kD PEGylated IL-2 conjugate at site E68 [Compound E68]”, the EC50 [1] was 7.7 nM, the βγ/αβγ ratio [1] was 86 and the EC50 [2] was 0.0893 nM.

Work on “F42: Table 2: 10 kD PEGylated IL-2 conjugate at site F42 [Compound F42]” yielded an EC50 [1] of 6.09 nM, a βγ/αβγ ratio [1] of 12 and an EC50 [2] of 0.515 nM.

Substance “K35: Table 2: 10 kD PEGylated IL-2 conjugate at site K35 [Compound K35]” has an EC50 [1] of 6.75 nM, a βγ/αβγ ratio [1] of 45 and an EC50 [2] of 0.15 nM.

In the case of “K43: Table 2: 10 kD PEGylated IL-2 conjugate at site K43 [Compound K43]”, the EC50 [1] is reported as 9.84 nM, the βγ/αβγ ratio [1] is reported as 75 and the EC50 [2] is reported as 0.131 nM.

For “R38: Table 2: 10 kD PEGylated IL-2 conjugate at site R38 [Compound R38]”, the EC50 [1] was 4.16 nM, the βγ/αβγ ratio [1] was 25 and the EC50 [2] was 0.165 nM.

In the case of “T41: Table 2: 10 kD PEGylated IL-2 conjugate at site T41 [Compound T41]”, the EC50 [1] is reported as 6.37 nM, the βγ/αβγ ratio [1] is reported as 130 and the EC50 [2] is reported as 0.0489 nM.

In the case of “V69: Table 2: 30 kD PEGylated IL-2 conjugate at site V69 [Compound V69]”, the EC50 [1] is reported as 9.99 nM, the βγ/αβγ ratio [1] is reported as 121 and the EC50 [2] is reported as 0.083 nM.

“Y45: Table 2: 30 kD PEGylated IL-2 conjugate at site Y45 [Compound Y45]” gave an EC50 [1] of 9.06 nM, a βγ/αβγ ratio [1] of 83 and an EC50 [2] of 0.11 nM.

aldesleukin [reference compound] gave an AUC0-t [3, 6] of 229 ng·h/mL, an AUCINF [3, 6] of 230 ng·h/mL and a CL [3, 6] of 21.67 mL/min/kg. The Cmax [3, 6] was 884 ng/mL, the Tmax [3, 6] was 1.8 min and the “Vss (distribution volume)” value [3, 6] was 0.39 L/kg. For the same substance, the t½ [3, 6] was 34.4 min, the t½ ([3]; C57BL/6 female mice, single IV bolus 0.3 mg/kg, E62_5 kD from a separate study, listed as aldesleukin) was 34.2 min and the “mean plasma concentrations measurable out to (post-dose)” value ([3]; single IV bolus, 120 h = last measured time point) was 4 h. For the same substance, the “pSTAT5 induction returned to baseline after” value [4] was 2 h, the “systemic levels of IFNγ” value [5] was “transient elevation” and the “plasma IL-5 levels” value ([5]; dose range 0.01-5.0 mg/kg) was “elevated plasma IL-5 levels starting at 1 mg/kg to 5 mg/kg”. For the same substance, the “hematology, histopathology or body weights relative to vehicle control” value ([5]; P65_30kD single IV 0.01-5.0 mg/kg, aldesleukin IV BID × 3) was “Abnormalities were not observed”.

From patent US20210046160A1 (Synthorx, Inc., priority 2019, published 2021)
